# Measured values reported in patent US20230287088A1 (BIONTECH, published 2023).
# Numbering of substitutions follows the chain as printed. Like-named read-outs stand apart in the source and are kept apart here.
# B1: P043.A.00047.H08 (protein sample ID 447) (antibody, V domains shown)
# VH: QSLEESGGDLVKPGASLTLTCTASGFSFSSDGMCWVRQAPGKGLEWIACIAAGSSGSTYYATWAQGRFTISKSSSTTVTLQMTSLTAADTATYFCAGEDYTGNNYYALWGPGTLVTVSS
# VL: AIDMTQTPSPVSAVVGDTVTINCQASENIYSFLAWYQQKPGQPPKLLIYFASKLASGVPSRFKGSGSGTQFTLTISDVHSDDAAIYYCQQTGTYSDADNTFGGGTEVVVK
# notes: also called antibody with the Protein sample ID 447
# B2: P043.A.00095.D06 (protein sample ID 470) (antibody, V domains shown)
# VH: QEQLEESGGDLVKPEGSLTLTCTASGFSFSSNYWICWVRQAPGKGLEWIGCIYIGSGDTYYASWAKGRFTISKTSSTTVTLQMTSLTAADTATYFCARSYTPGSYYNMNLWGPGTLVTVSS
# VL: DVVMTQTPSSVSAAVGGTVTINCQASQQISNELSWYQQKSGQPPKLLIYDASDLASGVPSRFKGSGSGTEFTLTISDLESADAATYYCQSTGGASSDGNAFGGGTEVVVK
# notes: also called S1 targeting antibody 470; anti-S1-antibody 470
# B3: P043.A.00017.E07 (protein sample ID 449) (antibody, V domains shown)
# VH: QSVEESGGRLVTPGTPLTLTCTVSGFSLSSYAMSWVRQAPGKGLEWIGIISSSGSTYYASWAKGRFTISKTSTTVDLKITSPTTEDTATYFCARAMYPGYSTGVYNIWGPGTLVTVSL
# VL: AIQMTQSPSSLAASVGDTVTITCKASEDIGYELNWYQQKLGIAPKLLIYGANTLESGVPSRFSGSGSETDYTLTISSVQAEDAGIYYCQQGYNTPNTFGAGTKVEIK
# B4: P043.A.00020.D06 (protein sample ID 444) (antibody, V domains shown)
# VH: QSVEESGGRLVTPGTPLTLTCTVSGFSLSSYAMNWVRQAPGKGLEWIGIISSSGSTYYASWAKGRFTISKTSTTVDLKITSPTTEDTATYFCARVGAGYAGYGYDNYYGMDPWGPGTLVTVSS
# VL: B3 VL with E32G, N93S, N96L
# B5: P043.A.00117.C08 (protein sample ID 469) (antibody, V domains shown)
# VH: QSLEESGGGLVKPEGSLTLTCKASGFDLNTYYYMCWVRQAPGKGLEWIACIGTSDSGHTAYASWARGRFTISKTSSTTVTLQMTGLTAADTATYFCARGGRSVGDGVDLWGPGTLVTVSS
# VL: DIVMTQTPASVEAAVGGTVTIKCQASQSISSWLAWYQQKPGQPPKLLIYDAFDLASGVPSRFKGSGSGTEFTLTISDLESADAATYYCQSYLYGESGSHGFGFGGGTEVVVR
# What was measured:
# [1] = target: T1, Mouse-Fc-tagged SARS-CoV2 S1-RBD (Sino Biologicals) recombinant protein (SARS-CoV-2, UniProt P0DTC2 319-541); test: SPR, S1-RBD-mFc captured via anti-mouse-Fc antibody, 1:1 model
# T1 construct: domain: S1-RBD
# [2] = target: T1, Mouse-Fc-tagged SARS-CoV2 S1-RBD (Sino …); test: SPR (Biacore T200), RBD-mFc captured via anti-mouse-Fc on CM5, 1:1 model
# [3] = target: T1, Mouse-Fc-tagged SARS-CoV2 S1-RBD (Sino …); test: competition ELISA: blocks S1-RBD-mFc binding to coated ACE-2 ECD
# [4] = target: T2, Human-Fc-tagged SARS-CoV2 S1 recombinant protein (Sino Biologicals) (SARS-CoV-2, UniProt P0DTC2 16-685); test: ELISA on coated S1-hFc, 3 µg/ml; rabbit antibody in B-cell supernatant
# T2 construct: domain: S1; Bought reagent
# [5] = target: T2, Human-Fc-tagged SARS-CoV2 S1 …
# [6] = target: T3, His-tagged SARS-CoV S1-RBD (Sino Biologicals) (SARS-CoV, UniProt P59594 306-527); test: ELISA, His-tagged SARS-CoV S1-RBD coated, anti-human Fc detection
# T3 construct: domain: S1-RBD; Bought reagent
# [7] = target: T1, Mouse-Fc-tagged SARS-CoV2 S1-RBD (Sino …); test: ELISA on coated S1-RBD-mFc
# [8] = target: T1, Mouse-Fc-tagged SARS-CoV2 S1-RBD (Sino …)
# [9] = target: T2, Human-Fc-tagged SARS-CoV2 S1 …; test: ELISA on coated S1-hFc, 0.85 µg/ml; rabbit antibody in B-cell supernatant
# [10] = target: T3, His-tagged SARS-CoV S1-RBD (Sino …); test: ELISA on coated His-tagged SARS-CoV S1-RBD [D00020 Figure 8A continued]
# [11] = target: T1, Mouse-Fc-tagged SARS-CoV2 S1-RBD (Sino …); test: ELISA on coated S1-RBD-mFc; remark: listed apart in the source
# [12] = target: T1, Mouse-Fc-tagged SARS-CoV2 S1-RBD (Sino …); remark: listed apart in the source
Binder,Kd [1] [nM],kon [1] [M⁻¹ s⁻¹],koff [2] [s⁻¹],IC50 [3] [µg/mL],EC50 [4] [µg/mL],IC50 [5] [µg/mL],EC50 [6] [µg/mL],EC50 [7] [µg/mL],Kd [8] [nM],EC50 [9] [µg/mL],koff [1] [s⁻¹],binding result [10],EC50 [11] [µg/mL],IC50 [12] [µg/mL]
B1,0.228,296000,6.72e-05,0.0299,0.0195,0.0163,0.0081,0.0096,,,,,,
B2,,,,0.0196,,0.0127,,0.0086,0.0104,0.0101,,,,
B3,0.308,780000,,0.0539,0.0053,0.0036,,0.0088,,,0.000239,no binding (tested: 1000 ng/ml),0.0065,0.0508
B4,1.36,236000,,0.0603,0.0057,0.0072,,0.0073,,,0.00032,no binding (tested: 1000 ng/ml),0.0082,0.0651
B5,,,,0.0192,,0.0142,0.0885,0.0062,,0.0151,,,,
